Biological target: His-hQTRT1 (catalytic subunit of human TGT);StrepII-hQTRT2 (noncatalytic subunit) (human;human, UniProt Q9BXR0;Q9H974 1-403;1-415, |)
Assay: denaturing EMSA of covalent intermediate; 9-deazaguanine; RBT buffer: 50 mM Tris-HCl pH 7.5, 20 mM NaCl, 5 mM MgCl2, 2 mM DTT, 37 C, 1-1.5 h, with 9-deazaguanine (25-50 uM); capture-release with poly(U) and ArgSL competitors, urea and guanidine washes
Conditions: protein: recombinant;recombinant; tags: N-terminal His;N-terminal StrepII-SUMO; copies: 1;1; hairpin

His-hQTRT1 (catalytic subunit of human TGT);StrepII-hQTRT2 (noncatalytic subunit), sequence (Q9BXR0 whole entry, chain 1 of 2): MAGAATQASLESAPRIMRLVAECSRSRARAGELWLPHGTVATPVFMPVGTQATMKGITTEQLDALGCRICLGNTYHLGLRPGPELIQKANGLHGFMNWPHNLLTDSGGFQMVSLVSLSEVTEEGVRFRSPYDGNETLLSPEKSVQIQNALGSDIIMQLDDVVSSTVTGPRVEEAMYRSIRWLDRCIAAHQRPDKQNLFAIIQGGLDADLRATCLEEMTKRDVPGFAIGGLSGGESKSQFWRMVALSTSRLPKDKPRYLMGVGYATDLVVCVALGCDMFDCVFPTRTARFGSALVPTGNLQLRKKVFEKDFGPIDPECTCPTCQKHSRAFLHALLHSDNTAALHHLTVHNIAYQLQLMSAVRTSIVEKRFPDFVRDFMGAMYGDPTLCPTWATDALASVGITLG
His-hQTRT1 (catalytic subunit of human TGT);StrepII-hQTRT2 (noncatalytic subunit), sequence (Q9H974 whole entry, chain 2 of 2): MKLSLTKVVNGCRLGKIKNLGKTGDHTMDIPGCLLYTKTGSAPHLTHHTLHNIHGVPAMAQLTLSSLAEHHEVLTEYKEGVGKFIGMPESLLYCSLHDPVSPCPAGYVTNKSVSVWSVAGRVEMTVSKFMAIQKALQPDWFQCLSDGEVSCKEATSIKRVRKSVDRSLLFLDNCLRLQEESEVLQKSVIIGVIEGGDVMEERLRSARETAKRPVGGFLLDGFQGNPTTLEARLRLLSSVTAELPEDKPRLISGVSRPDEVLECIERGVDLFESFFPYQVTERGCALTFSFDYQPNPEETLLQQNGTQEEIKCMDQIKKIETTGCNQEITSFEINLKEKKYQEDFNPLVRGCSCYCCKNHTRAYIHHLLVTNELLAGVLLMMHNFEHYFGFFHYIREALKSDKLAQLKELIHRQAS

Row | Binder | binding result
1 | ACUGGCCUCCUAAGCCAGG (structured_RNA) [Arginyl anticodon stem loop (ArgSL)] | no binding
2 | CCCCGCCUGUCACGCGGGA (structured_RNA) [Aspartyl anticodon stem loop (AspSL)] | binds
